The source of these data is patent publication US20090181444A1, “MODIFIED CARBOHYDRATE PROCESSING ENZYME” (priority 2002, published 2009).

Common to all, as to format: biochemical
Data set [1] can be described thus: Hydrolysis of 4-methylumbelliferyl-β-D-glucoside, initial rates. Conditions: 80° C., pH 6.5; for Km / kcat: 4-MUGlc. Here is the method:
(§1) Parameters were determined by the method of initial rates. Activity was measured in time course assays of the hydrolysis of 4-methylumbelliferyl-β-D-glycosides (β-D-gluco, β-D-galacto, β-D-fuco, β-D-manno, β-D-xylo, β-D-glucurono) at 5-15 concentrations (0.001-1.5 mM) incubated at 80° C. in 50 mM sodium phosphate buffer, pH 6.5. Reactions were terminated at 2, 5, 10, 15 min by the addition of 100 μl of ice cold 1M NazCO3, pH 10 and analyzed (Labsystems Fluoroscan Ascent plate reader, […]). KM and kcat were derived by fitting the initial rates to hyperbolic Michaelis-Menten curves using GraFit 4 (Erithacus Software Ltd, Staines, UK).
(§2) Determination of the Michaelis-Menten parameters for the WT and mutant enzymes was performed at pH 6.5 at 80° C. for a broad range of representative, fluorophore-containing 4-methylumbelliferyl glycoside substrates, which allowed activities to be determined with a high degree of sensitivity (Table). Under these optimized assay conditions, the glucoside (Glc), galactoside (Gal) and fucoside (Fuc) substrates were hydrolysed well by SSβG-WT, but the xyloside (Xyl) substrate was hydrolysed relatively poorly (approx. 3% of turnover as determined by kcat compared with β-D-glucoside). […] In all cases the absolute D-stereospecificity and β-stereoselectivity of SSβG was maintained and no activity was detected towards L- or α-glycoside substrates.

Data set [2] is described as follows: Hydrolysis of 4-methylumbelliferyl-β-D-galactoside, initial rates. Conditions: 80° C., pH 6.5; for Km / kcat: 4-MUGal. Here is the method: as §1, §2
The nature of data set [3]: Hydrolysis of 4-methylumbelliferyl-β-D-fucoside, initial rates. To be noted: for Km / kcat: 4-MUFuc, 80° C., pH 6.5. Here is the method:
as §1, §2

A short description of data set [4]: Hydrolysis of 4-methylumbelliferyl-β-D-mannoside, initial rates. Conditions: for Km / kcat: 4-MUMan, 80° C., pH 6.5. The procedure:
as §1, §2

A short description of data set [5]: Hydrolysis of 4-methylumbelliferyl-β-D-xyloside, initial rates. Conditions: for Km / kcat: 4-MUXyl, 80° C., pH 6.5. Here is the method:
as §1, §2

A short description of data set [6]: Hydrolysis of 4-methylumbelliferyl-β-D-glucuronide, initial rates. Conditions: for kcat / Km: 4-MUGlcA, 80° C. Here is the method: as §1, §2
Data set [7] is described as follows: Parallel one-pot glycoside synthesis (transglycosylation to MeOH). Conditions: 8 h, 50° C., 1:9 MeOH:phosphate buffer pH 6.5. The procedure:
Enzyme (WT, […] or E432C, 1 mg) was added to a mixed solution (1 mL) of para-nitrophenyl (pNP) β-D-manno-, galacto-, gluco- and xylo- pyranosides (0.03 mmol of each) in 1:9 MeOH:phosphate buffer (pH 6.5) and incubated at 50° C. for 45 min (WT), 4 h (WT), 8 h (W433C, E432C). After this time the solutions were extracted with EtOAc to remove para-nitrophenol and passed through short Sephadex and Celite:Graphite (1:1) columns to remove protein, pNP-glycoside and remaining para-nitrophenol. Solvent was removed and product mixtures were analysed by ^1H NMR and ESMS. Yields based on donor were calculated from integration of anomeric proton resonances in ^1H NMR (D2O, 500 MHz): α-Gal (δ 5.12, d, […]), α-Glc (δ 5.08, d, 3.8 Hz), α-Xyl (δ 5.04, d, J=3.4 Hz), α-Man (δ 5.03, d, J=1.8 Hz), β-Man (δ 4.75, s), β-Glc (δ 4.49, d, J=8.0 Hz), P-Gal (δ 4.45, d, 7.9 Hz), Me-β-Man (δ 4.44, s), β-Xyl (δ 4.42, d, J=7.8 Hz), Me-β-Glc (δ 4.23, d, J 8.1 Hz), Me-β-Xyl (δ 4.18, d, J=7.8 Hz), Me-β-Gal (δ 4.17, d, J=8.0 Hz).
Scheme 1: Parallel glycoside syntheses using SSβG-WT, -E432C and -W433C as catalysts. […] Such balanced libraries are not produced by SSβG-WT even under varying reaction times.

Data set [8] can be described thus: Substrate specificity compared across 4-methylumbelliferyl-β-D-glycosides. The procedure: as §1, §2

As usually defined, the Km is the substrate concentration at which the rate is half of its maximum. A word on the kcat: it is the maximal rate divided by the concentration of active sites.

B1: E432C: SSβG point mutant Glu-432→Cys (protein, listed as Sulfolobus solfataricus)
chain: MYSFPNSFRFGWSQAGFQSEMGTPGSEDPNTDWYKWVHDPENMAAGLVSGDLPENGPGYWGNYKTFHDNAQKMGLKIARLNVEWSRIFPNPLPRPQNFDESKQDVTEVEINENELKRLDEYANKDALNHYREIFKDLKSRGLYFILNMYHWPLPLWLHDPIRVRRGDFTGPSGWLSTRTVYEFARFSAYIAWKFDDLVDEYSTMNEPNVVGGLGYVGVKSGFPPGYLSFELSRRHMYNIIQAHARAYDGIKSVSKKPVGIIYANSSFQPLTDKDMEAVEMAENDNRWWFFDAIIRGEITRGNEKIVRDDLKGRLDWIGVNYYTRTVVKRTEKGYVSLGGYGHGCERNSVSLAGLPTSDFGWEFFPEGLYDVLTKYWNRYHLYMYVTENGIADDADYQRPYYLVSHVYQVHRAINSGADVRGYLHWSLADNYCWASGFSMRFGLLKVDYNTKRLYWRPSALVYREIATNGAITDEIEHLNSVPPVKPLRH
As for B1, in data set [1], the Km turned out to be 340 ± 70 µM, the kcat was 5.1 ± 0.5 s⁻¹ and the “Glc kcat/KM reduction relative to WT” value is recorded as 200 fold. Further, in data set [2], the Km amounted to 470 ± 140 µM, the kcat amounted to 5.4 ± 0.8 s⁻¹ and the “Gal kcat/KM reduction relative to WT” value turned out to be 130 fold. Also, in data set [3], the Km turned out to be 340 ± 40 µM and the kcat was found to be 18 ± 1 s⁻¹. Also, in data set [4], the “kcat (Man) increase relative to WT” value is 2 fold, the Km is 900 ± 260 µM and the kcat worked out at 2.8 ± 0.7 s⁻¹. Also, in data set [5], the Km was 1260 ± 210 µM and the catalytic constant (kcat) amounted to 2.8 ± 0.3 s⁻¹. Further, in data set [6] (pH 6.5), the kcat entry is given as “NAD” and the “activity towards GlcA” value is given as “no detectable activity”. Also, in data set [7], the “Yield of Products, product 1 (β-glycoside of Glc)” value is recorded as 22%; the “Yield of Products, product 2 (β-glycoside of Gal)” value was found to be 24%; the “Yield of Products, product 3 (β-glycoside of Man)” value was determined as 14%; the “Yield of Products, product 4 (β-glycoside of Xyl)” value came to 17%. In addition, in data set [7], the “Yield of Products, product 5” value was determined as 7%; the “Yield of Products, product 6” value is recorded as 9%; the “Yield of Products, product 7” value is recorded as 3%; the “Yield of Products, product 8” value turned out to be 4%. The “kcat values for Glc,Gal,Xyl,Man substrates” value in data set [8] lay within 2.8 to 5.4 s⁻¹.

B2: M439C: SSβG point mutant Met-439→Cys (protein)
chain: MYSFPNSFRFGWSQAGFQSEMGTPGSEDPNTDWYKWVHDPENMAAGLVSGDLPENGPGYWGNYKTFHDNAQKMGLKIARLNVEWSRIFPNPLPRPQNFDESKQDVTEVEINENELKRLDEYANKDALNHYREIFKDLKSRGLYFILNMYHWPLPLWLHDPIRVRRGDFTGPSGWLSTRTVYEFARFSAYIAWKFDDLVDEYSTMNEPNVVGGLGYVGVKSGFPPGYLSFELSRRHMYNIIQAHARAYDGIKSVSKKPVGIIYANSSFQPLTDKDMEAVEMAENDNRWWFFDAIIRGEITRGNEKIVRDDLKGRLDWIGVNYYTRTVVKRTEKGYVSLGGYGHGCERNSVSLAGLPTSDFGWEFFPEGLYDVLTKYWNRYHLYMYVTENGIADDADYQRPYYLVSHVYQVHRAINSGADVRGYLHWSLADNYEWASGFSCRFGLLKVDYNTKRLYWRPSALVYREIATNGAITDEIEHLNSVPPVKPLRH
On to B2, for which the Km was 68 ± 28 µM in data set [1]; 83 ± 16 µM in data set [2]; 23 ± 5 µM in data set [3]; 42 ± 15 µM in data set [4]; 68 ± 7 µM in data set [5]; 1400 ± 600 µM in data set [6] (pH 6.5, read-out: Km). The kcat in data set [1] was found to be 190 ± 40 s⁻¹; in data set [2] it was 94 ± 11 s⁻¹; in data set [3], 91 ± 8 s⁻¹; in data set [4], 2.3 ± 0.4 s⁻¹; in data set [5], 9.3 ± 0.2 s⁻¹; in data set [6] (pH 6.5), 1.3 ± 0.4 s⁻¹. The “kcat/KM for Fuc lower than WT” value in data set [3] was 1.8 fold. Also, in data set [5], the “kcat/KM for Xyl higher than WT” value is on record as 4.7 fold. Besides, the “absolute increase in Xyl activity” value in data set [5] (relative to WT) is on record as 5 fold. Further, the “kcat/KM for GlcA higher than WT” value in data set [6] is 1.5 fold. Moreover, the “increase in Xyl over Fuc specificity” value in data set [8] (relative to WT) was 10 fold.

B3: W433C: SSβG point mutant Trp-433→Cys (protein, listed as Sulfolobus solfataricus)
chain: MYSFPNSFRFGWSQAGFQSEMGTPGSEDPNTDWYKWVHDPENMAAGLVSGDLPENGPGYWGNYKTFHDNAQKMGLKIARLNVEWSRIFPNPLPRPQNFDESKQDVTEVEINENELKRLDEYANKDALNHYREIFKDLKSRGLYFILNMYHWPLPLWLHDPIRVRRGDFTGPSGWLSTRTVYEFARFSAYIAWKFDDLVDEYSTMNEPNVVGGLGYVGVKSGFPPGYLSFELSRRHMYNIIQAHARAYDGIKSVSKKPVGIIYANSSFQPLTDKDMEAVEMAENDNRWWFFDAIIRGEITRGNEKIVRDDLKGRLDWIGVNYYTRTVVKRTEKGYVSLGGYGHGCERNSVSLAGLPTSDFGWEFFPEGLYDVLTKYWNRYHLYMYVTENGIADDADYQRPYYLVSHVYQVHRAINSGADVRGYLHWSLADNYECASGFSMRFGLLKVDYNTKRLYWRPSALVYREIATNGAITDEIEHLNSVPPVKPLRH
On to B3, for which, in data set [1], the Km was 1610 ± 350 µM, the kcat worked out at 33 ± 5 s⁻¹ and the “Glc kcat/KM reduction relative to WT” value is listed as 140 fold. Also, in data set [2], the Michaelis-Menten constant (Km) is 2200 ± 1200 µM, the kcat is 14 ± 6 s⁻¹ and the “Gal kcat/KM reduction relative to WT” value was 230 fold. In data set [3], the Km worked out at 410 ± 90 µM and the kcat amounted to 31 ± 3 s⁻¹. For the same molecule, in data set [4], the Km is 180 ± 20 µM and the kcat is 0.92 ± 0.05 s⁻¹. Further, in data set [5], the “kcat (Xyl) lowering relative to WT” value came out at 2.9 fold, the Km was found to be 590 ± 190 µM and the kcat turned out to be 1.5 ± 0.3 s⁻¹. In addition, in data set [6] (pH 6.5), the Km entry was “NAD^” and the kcat result is recorded as “NAD”. In addition, in data set [7], the “Yield of Products, product 1 (β-glycoside of Glc)” value came out at 36%; the “Yield of Products, product 2 (β-glycoside of Gal)” value stood at 18%; the “Yield of Products, product 3 (β-glycoside of Man)” value is 8%; the “Yield of Products, product 4 (β-glycoside of Xyl)” value is 13%. In data set [7], the “Yield of Products, product 5” value is listed as 11%; the “Yield of Products, product 6” value turned out to be 6%; the “Yield of Products, product 7” value is 3%; the “Yield of Products, product 8” value is on record as 5%. In addition, in data set [8], the “broadening of Gal:Man stereospecificity relative to WT” value stood at 25 fold and the “specificity range of kcat/KM for Glc:Gal:Xyl:Man” value was 8 fold.
